Data set [1] concerns the molecule itself. Kind of data set: native gel or EMSA. In general terms: Mobility shift assays separate free from complexed probe on a gel.
Data set [2] deals with the molecule itself. Kind of data set: native MS.
Data set [3] concerns the molecule itself. Kind of data set: SEC. A general note: Size exclusion chromatography separates by hydrodynamic size, large species first.

The term stoichiometry N denotes the number of molecules, sites or subunits per partner or assembly.

B1: 3×Ala-MxEnc (natural protein, Myxococcus xanthus)
chain: MPDFLGHAENPLREEEWARLNETVIQVARRSLVGRRILDIYGPLGAGVQTVPYDEFQGVSPGAVDIVGEQETAMVFTDARKFKTIPIIYKDFLLHWRDIEAARTHNMPLDVSAAAGAAALCAQQEDELIFYGDARLGYEGLMTANGRLTVPLGDWTSPGGGFQAIVEATRKLNEQGHFGPYAVVLSPRLYSQLHRIYEAAAVLEIETIRQLASDGVYQSNRLRGESGVVVSTGRENMDLAVSMDMVAAYLGASRMNHPFRVLEALLLRIKHPDAICTLEGAGATERR
In the case of B1, the binding result in data set [1] was “binds”.

B2: 3×His-MxEnc (K199H/T200H/G201H triple point mutant of the M. xanthus encapsulin) (natural protein, Myxococcus xanthus)
chain: MPDFLGHAENPLREEEWARLNETVIQVARRSLVGRRILDIYGPLGAGVQTVPYDEFQGVSPGAVDIVGEQETAMVFTDARKFKTIPIIYKDFLLHWRDIEAARTHNMPLDVSAAAGAAALCAQQEDELIFYGDARLGYEGLMTANGRLTVPLGDWTSPGGGFQAIVEATRKLNEQGHFGPYAVVLSPRLYSQLHRIYEHHHVLEIETIRQLASDGVYQSNRLRGESGVVVSTGRENMDLAVSMDMVAAYLGASRMNHPFRVLEALLLRIKHPDAICTLEGAGATERR
Regarding B2, the “stoichiometry N” value in data set [2] turned out to be 60.

B3: 3×Asp-MxEnc (natural protein, Myxococcus xanthus)
chain: MPDFLGHAENPLREEEWARLNETVIQVARRSLVGRRILDIYGPLGAGVQTVPYDEFQGVSPGAVDIVGEQETAMVFTDARKFKTIPIIYKDFLLHWRDIEAARTHNMPLDVSAAAGAAALCAQQEDELIFYGDARLGYEGLMTANGRLTVPLGDWTSPGGGFQAIVEATRKLNEQGHFGPYAVVLSPRLYSQLHRIYEDDDVLEIETIRQLASDGVYQSNRLRGESGVVVSTGRENMDLAVSMDMVAAYLGASRMNHPFRVLEALLLRIKHPDAICTLEGAGATERR
B3: the binding result in data set [3] is reported as “binds”.

Source of the values: article PMC10871247 (bioRxiv, 2024).
